# Data from the nanobody polyreactivity screen of Harvey et al. (2022).
# Assay: yeast display, Sf9 membrane polyspecificity reagent, FACS + sequencing; frameworks hold sequencing errors
# How it was run: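 A synthetic nanobody library was expressed on Saccharomyces cerevisiae BJ5465 by galactose induction for 36–48 hours. The library was stained for 1 hour at 4 °C with 10% biotinylated, detergent-solubilized Sf9 membrane reagent and enriched with streptavidin microbeads before FACS. Low and high (top ~1%) gates were set on anti-HA fluorescence for expression and streptavidin fluorescence for reagent binding, and each polyreactivity label reflects the gate of origin.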
row,Sequence,polyreactivity (PSR sort gate)
1,QVQLVESGGCLDQAGGRLRLSCAASGSTFYDYVMGWYRQAPGKERELVAVISSSGSTNYADSVKGRVTISRDNAKNTVYLQMNSLKPEDTAVYYCAVDPFRRWWETIFDEYDYWGQGTQVTVSS,low polyreactivity
2,QVQLVESGGGLVQAGGSLRLSCAASGRNFYVYTMGWYRQAPGKERELVAAISWSGGSTHHADSVKGRFTISRDNAKNTVYLQMNSLKPEDTAVYYCNKGVVSRVAFEYWGQGTQVTVSS,low polyreactivity
3,QVQLVESGGGLVQAGGSLRLSCAASGFTIRAYVMGSYRQAPGKEREFVADISYRGGGTNYADSVKGRFTISRDNAKNTVYLQMNSLKPEDTAVYYCNARSGSSKSGYYYWGQGTQVTVSS,high polyreactivity
4,QVQLVESGGGLVQAGGSLRLSCAASGSTFKYYAMGWYRQAAGKERELVATITRRSGSTYYADSVKGRFTISRDNAKNTVYLQMNSLKPEDTAVYYCNAYGPYKYNYWGQGTQVTVSS,high polyreactivity
5,QVQLVESGGRLVQAGGSLRLSCAASGRIFGDYAMGRYRQAPGKERDLVAAISWSDGSTYYADSVKGRFTISRDNAKNTVYLQMNSLTPEDTAVYYCPAYGWGYRYVDVVVSDFYYWGQGTQVTVSS,low polyreactivity
6,QVQLVESGGGLVQAGGSLRLSCAASGIIYTYYAMGWYRQAPGKERELVARISSSGGRTYYADSVKGRFTISRDNAKNTVYLQMNSLKPEDTAVYYCAAAIVSYGRNDYWGQGTQVTVSS,high polyreactivity
7,QVQLVESGGGLVQAGGSLRLSCAPSGRIFQWYAMGWYRQAPGKERELVAAIRNGGTTNYADSVKGRFTISRDNAKNTVYLQMNSVIPVDTAVYYCNADKYRTWDFQPRYPGGYWGQGTQVTVSS,low polyreactivity
8,QVQLQESGGGLVQAGGGLRLSCAASGTISGPHVMGSSRQAPRKEREFLAAINVGANTYYADNVKGRFTISRDNAKNTVYLQMNSLKPEDTAVYYCAAVYYGDIGHEYWGQGTQVTVSC,low polyreactivity
9,QVHLVESGGGLVQAGGSLRLSCAASGSTLYDNAMGWYRQAPGKERELVAAITRRGAGTYYADSVKGRFTISRDNAKNTVYLQMNSLKPEDTAVYYCNAGRPYFVRYYYWGHGTQVTVSS,high polyreactivity
10,QVQLVESGGGLVQAGGSLRVSCAASGSTFWSYAMGGYRQAPGKARELVAGITQSGGSTYYADSVKGRFTISRDTAKHTLYLQMNSLQPEDTAVYDCAKDGRVSGDFDYWGQGTQGTVSS,low polyreactivity
11,QVQLVESGGGLVQAGGSLRLSCAASGITFAYYVMGWYRQAPGKERELVAAISRSGSTYYADSVKGRFTISRDNAKNTVYLQMNSLKPEDTAVYYCAVLYIRWYTYEYWGQGTQVTVSS,high polyreactivity
12,QDQLVESGGGLVQAGGSLRLSCAASGIILDHYSMGWYRQAPGKERELVAAISSGTRTNYADSVKGRFTISRDNAKHTVSLQMNSLKPEDTAVYYCAATIYRRYRSKYSITSYWGQGTQVTVSS,high polyreactivity
13,QVQLVESGGGLVQAGGSLRLSCAASGSIFFEYAMGWYRQATGKERELVAAISRRGGSTYYADSVKGRFTISRDNAKNTVYVQMNSLKPEDTAVYYCNKVNRASRGDYDYWGQGTQVTVSS,high polyreactivity
14,QVQLVESGGGLVQAGGSLRLSCDASGFIFTGNVMGWYRQAPGKERELVAGITYTSGSTYYADSVKGRFTISRDYAKNTVYLQMNSLKPEDTAVYYCAAEITRHYVFGDDYWGQGTQVTVSS,low polyreactivity
15,QVQLEESGGGLVQAGGSLRLCCAASGRTFYYAMGWYRQATGKDRYADSVKGRFTISRDNAKNTVYLQMNSLKPDDTSVYYCAAKVTEPPSLDDSDYWGQGTQVTVSS,low polyreactivity
16,QVQLGESGGVLVQAGGSLRLSCAASGRIFSENAMGWYRQATGKEWELVAAITGNGGDTYYADSVKGRFTISRDTAKNTVYLQMNSLKPEDTAVYYCAAETGGLGGDYWGQGTQVTVSS,low polyreactivity
17,QDQLVESGGGLVQAGGSLRLSCAASGRTFGTYAMGWYRQAPGKERELVAAISSSGGRTYYADSVKGRFTISRDNAKNTVYVLMHSLKPEVTAVYYFAKSRYATQTDYNYWGQGTQVTVSS,high polyreactivity
18,QVQLVESGVGLVQAGGSLRLSCAASGSTFRYYGMGWYRQAPGKEMELVAAISSSGGSTYYADSLKGRFTISRDNAKNTVSLQMNSLKPEDTAVYYCAAGSRFVSSRLYYWGQGTQVTVSS,high polyreactivity
19,QVQLVESGGGLVQAGGSLRLSCAASGRTFWANAMGWYRQAPGKERELVAAITIDGRTSYADSVKGRFTISRDNAKNTVYLQMNSLKPEDTAVYYCATEPFYTYGYYTYPYWYDYWGQGTQVTVSS,low polyreactivity
20,QVQLQESGGGLVQAGGSLRLICAESGSISQTVYMGWYRQAPGKEREFVAAINAGASTYYADSVKGRFTISRDNAKNTVYLQMNSLKPEDTAVYYCAAEYYSAAYNRYWGQGTQVTVSS,low polyreactivity
21,QVQLVESGGGLVQAGGSLRLSCAASGRIFSVYTMGWYRQAPGKERELVAAISSGASTNYADSVKGRFTISRDNAKNTVYLQMNSLKPEDTAVYYCAKVLTNFNLYYYWGQGTQVTVSS,low polyreactivity
22,QVQLVESGGGLVQAGGILRLSCAASGSIFAYYAMGWYRQAPGKERELVAAIDSGGGTSYADSVKGRFTISRDNAKNTVYLQMNRLKPEDTAVYYCNAAGYVVYYRIIAFGYWGQGTQVTVSS,low polyreactivity

row,Sequence,polyreactivity (PSR sort gate)
1,QVQLVESGGGLVQAGGSLRLSCAASGFTFGYYAMGWYRQAPGKERELVATITSSGASTYADSVKGRFTISRDNAKNTVYLQMNSLKPEDTAVYYCAADRLPSYWSWYGYDYWGQGTQVTVSS,high polyreactivity
2,QVQLVESGGGLVQAGGSLRLSCAASGLIFYDNMGWYRQAPGKERELVAAISSSGGSTSYADSVKGRFTISRDNAKNTVYLQMNSLKPEDTAVYYCAADQYYYWYTHQSIGYDYWGQGTQVTVSS,low polyreactivity
3,QVQLVESGGGLVQAGGSLRLSCAASGSTFSYYTMGWYRQAPGKEREFVAAISNSGSRTYYADSVKGRFTISRDNAKNTVYLQMNSLKPEDTAVYYCNAAYGYRFPRDYWGQGTQVIVSS,high polyreactivity
4,QVQLVESGGGLVQAGGSLRLSCAASGRILYQYAMGWYRQAPGKERELVASISGRSGRTRYADSVKGRFTISRDNAKNTVYLQMNSLKPEDTAVYYCNAGSSVLKYDYWGQGTQVTVSS,low polyreactivity
5,QVQLVESGGGLVQAGGSLRLSCAPSGSTFYRYAMGWYRQAPGKERELVAAISSSGGRTYYADSVKGRFTISRDNAKNTDYLQMNSLKPEDTAVYYCAADYTKHYWGQGTQVTVSS,high polyreactivity
6,QVQLVESGGGLVQAGGSLRLSCAASGSTFHIYAMGWYRQAPGKERELVAAINRSGGSTRYADSVKGRFTISRDNAKNTVYLQMNSLKPEDTAVYYCATKRSTGYYWGQGTQVTVSS,high polyreactivity
7,QVQLVESGGGLVQAGGSLRLSCAASGLTFVWYAMGWYRQAPGKERELVASITRRGVSTYADSVKGRFTISRDNAKNTVYLQMNSLKPEDTAVYYCKAQLIYKKGWYDYWGQGTQVTVSS,high polyreactivity
8,QVQLVESGGGLVQAGGSLRLSCAASGRIFGLYAMGWYRQAPGKERELVATITRRAGSTYYADSVKGRFTISRDNAKNTVYLQMNSLKPEDTAVYYCAARSWANYDYWGQGTQVTVSS,high polyreactivity
9,QVQLVESGGGLVQAGGSLRLSCAASGRIFVCYAMGWYRQAPVKERELLAAITCRGGSTYYADSVKGRFTISRDNAKNTVYLQMNSLKPEDTEVYYCAAVGHSGGRRYDYWGQGTQVTVSS,high polyreactivity
10,QVQLVESGGRLVQAGGSLRLSCAASGSIFAVNAMGWYRQAPGKERELVAAIDWSDGITYYADSVKGRFTISRDNAKNTVYLKMNSLKPEDTALNYCAADATAYGWYVEQFSFYDNDYWGQGTQVTVSS,high polyreactivity
11,QVQLVESGGGLVQAGGSLRLSCAASGSTFTYYSMGWDRQAPGKERELVAAISSNGGSTSYADSVKGRFTISRDNAKNTVYLQMNSLKPEDTAVYYCAAQVPLFGRYYWGQGTQVTVSS,high polyreactivity
12,QVQLVESGGGLVQAGGSLRLSCAASGFTLQRYAMGWYRQAPGKEREFVAVITRSGGSTYYADSVKGRFTISRDNAKNSVYLQMNSLKPEDTAVYDCAKREFPTTRNRGRYDYWGQGTQVTVSS,high polyreactivity
13,QVQHVESCGGLVQAGGSLRLSCAASGYIFSIYAMGWSRQAPGKERELVAAITWSGATTYYADSVKGRFSISRDNAKNTVYLQMNSLKPEDTAVYYCNADYWHYYEDYESWGQGTQVTVSS,low polyreactivity
14,QVQLQESGGGLVQAGGSLRLSCAASGYISQSSVMGWYRQAPGKERDFVASISYGATTYYADSVKGRFTISRDNAKNTVYLQTNSPKPEDTAVYYCAVGVKRGFSHRYWGQGTQVTVSS,high polyreactivity
15,QVQLVESGGGLVQAGGSLRLSCAASGITLVRYAMGWYRQAPGKERELVAAISSSGGSTYYADSVKGRFTISRHNAKNTVYLQMNSLKPEDTAVYYCNAYVHSRRVEFNYWGQGTQVTVSS,high polyreactivity
16,QVQLVESGGGLVQAGGSLRLSCAASGRIFRGNTMGWYRQAPGKERELVAAITRGGSTSYADSVKGRFTISRDNAKNTVNLQMNSLKPEDTAVYYCATRTHGEGTRRDSWGQGTQVTVSS,low polyreactivity
17,QVQLVESGGGLVQAGGSLRLSCAASGSIFYHNAMGWYRQAPGKERELVAAITWSGSTTYYADSVKGRFTISRDNAKNTVYLQMNSLKPEDTAVYYCNGGYRHGHYDYWGQGTQVTVSS,low polyreactivity
18,QVQLEESGGGLVQAGGSLRLSCAASGSTFYKYAMGWSRQAPGKERELVASITWSGTSTYYADSVKGRFTISRDNAKNTVYLQMNSLKPEDTAVYYCNAGLEYYYWGYTWEFDYWGQGTQVTVSS,low polyreactivity
19,QVQLVESGGGLVQARGSLRLSCAASVITFRHNTMGWYRQAPGKERELVSTNYADSVKGRFTISRDNAKNTVYLQMNSLKQEDTAVYYCNADGTFEYDYWGQGTQVTVSS,low polyreactivity
20,QVQLVESGGGLVQAGGSLRLSCAASGFILQRYAMGWYRKAPGKERELVAAITSSGGRTYYADSVKGRFTISRDNANNTVYLQMNSLKPEDTAVYYCNTVLVYYRMIKFEYWGQGTQVTVSS,high polyreactivity
21,QVHLVESGGGLVQAGGSLRLSCAASGSIFVYNSMGWYRQAPGKEMELVAGITFIGGSTYYADSVKGRFTISRDNAKNTVYLQKNSLKPEDTAVYYCNADVAPGIFYGYDSWGQGTQVTVSS,low polyreactivity
